Patent publication US8961986B2, “Peptide composition” (Apitope Technology (Bristol) Limited, priority 2000, dated 2015)

What was measured:
HLA-DR2b = target: T1, HLA-DR2b (Homo sapiens, UniProt P01903+P01911); assay: Antigen presentation assay, HLA-DR2b transfected L-cells; format: cell-based
T1 construct: expressed in transfected cells; host or cells: L-cells
Text: (§1) MBP peptides 30-44, 130-144 and 139-153 were synthesized using L-amino acids and standard F-moc chemistry on an Abimed AMS 422 multiple peptide synthesiser.
(§2) L-cells transfected with either HLA-DQ6, HLA-DR2a or HLA-DR2b, or Mgar cells (EACC, Porton Down, UK) which express HLA-DQ, DP and DR were used as APCs.
(§3) T-cell clones MS 49:D3 and MS17:A2 were generated from MS patients and clone N5:19 was generated from a normal individual. All three clones were DR2 positive.
(§4) Antigen presenting cells were incubated with the various concentrations of peptide and the appropriate T-cells. Proliferation, and therefore activation, of the T-cells was measured by [^3H]-Thymidine incorporation, and expressed as the stimulation index (SI=corrected counts per minute (ccpm) culture containing peptide/ccpm culture without peptide).

HLA-DR2a = target: T2, HLA-DR2a (Homo sapiens, UniProt P01903+Q30154); assay: Antigen presentation assay, HLA-DR2a transfected L-cells; format: cell-based
T2 construct: expressed in transfected cells; host or cells: L-cells
Text: as §1, §2, §3, §4

T1 sequence (P01903 26-254): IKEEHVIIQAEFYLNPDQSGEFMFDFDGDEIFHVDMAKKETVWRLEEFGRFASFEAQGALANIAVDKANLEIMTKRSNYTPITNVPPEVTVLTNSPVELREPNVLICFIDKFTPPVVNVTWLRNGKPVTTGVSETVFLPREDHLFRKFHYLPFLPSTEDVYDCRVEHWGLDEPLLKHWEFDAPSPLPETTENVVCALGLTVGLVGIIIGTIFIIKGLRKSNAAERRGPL
T1 sequence (P01911 30-266): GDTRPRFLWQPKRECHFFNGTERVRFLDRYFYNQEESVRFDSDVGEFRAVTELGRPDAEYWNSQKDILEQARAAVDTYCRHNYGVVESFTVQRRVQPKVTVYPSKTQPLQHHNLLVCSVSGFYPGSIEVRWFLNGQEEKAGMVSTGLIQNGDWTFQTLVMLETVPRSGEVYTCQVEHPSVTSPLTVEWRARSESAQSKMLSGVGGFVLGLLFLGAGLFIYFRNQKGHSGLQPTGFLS
T2 sequence (P01903 26-254): as the sequence (P01903 26-254) above
T2 sequence (Q30154 30-266): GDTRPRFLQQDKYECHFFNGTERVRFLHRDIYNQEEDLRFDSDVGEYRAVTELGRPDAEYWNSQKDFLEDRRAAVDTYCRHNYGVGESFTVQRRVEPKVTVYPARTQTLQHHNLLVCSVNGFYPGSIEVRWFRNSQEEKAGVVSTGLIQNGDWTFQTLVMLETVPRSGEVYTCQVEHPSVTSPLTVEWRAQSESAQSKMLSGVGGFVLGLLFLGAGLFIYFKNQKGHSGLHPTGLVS

## MBP 139-153: MBP peptide 139-153 synthesized using L-amino acids (RPSQRHGSKYLATAS)
HLA-DR2b
  proliferation of N5:19 T-cell clone, HLA-DR2b transfected L-cells: not
HLA-DR2a
  proliferation of N5:19 T-cell clone, HLA-DR2a transfected L-cells: stimulated proliferation
